Experimental data reported in the supplement of paper PMC10567573.

B1: NCF4 (parent)
chain: FVKILKDFPEEDDPTNWLRCYYYE
B2: PPP2R2B (parent)
chain: PSNRSFFSEIISSISDVKFSHSGR

Variants of: B1
Assay: protein stability index of a GFP-peptide fusion (GPS, HEK-293T) (PSI 1-6); higher = more stable
Details: c terminus: a fixed tail appended
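Also: lentivirally expressed fusions sorted by FACS into six bins by GFP to DsRed ratio, PSI derived from sequencing read proportions per bin multiplied by bin number.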

Protein stability index, by site and new letter:
P14: D 2.76; E 3.08; F 1.24; G 2.52; H 3.08; I 1.15; K 1.9; M 1.72; Q 1.47; R 3.25; S 2.5; T 1.11; V 1.84; W 2.21; Y 1.3
T15: A 2.18; C 1.88; D 1.79; E 2.85; F 1.79; G 1.66; H 1.3; I 1.44; K 1.93; L 2.27; M 2.32; N 2.03; P 2.88; Q 2.02; R 3.22; S 2.14; V 1.9; W 1.41; Y 1.84
N16: A 1.61; C 3.04; D 1.7; E 2.71; F 2.41; G 1.61; H 5.27; I 1.75; K 1.81; L 1.64; M 2.61; P 2.55; Q 2.05; R 1.47; S 1.53; T 2.25; V 1.82; W 1.58; Y 2.46
W17: A 1.93; C 2.55; D 1.91; E 1.91; F 1.59; G 1.79; H 2.34; I 1.84; K 1.93; L 1.74; M 1.85; N 3.07; P 1.54; Q 1.89; R 1.52; S 1.52; T 1.85; V 1.31; Y 2.4
L18: A 2.1; C 1.58; D 1.94; E 2.13; G 1.92; H 1.66; K 1.55; M 1.72; N 1.86; P 2.42; Q 1.73; R 1.9; S 2.15; T 2.24; V 2.34; Y 1.96
R19: A 2.27; C 1.01; D 2.32; E 1.56; F 2.28; G 1.09; H 3.89; I 1.84; K 4.32; L 1.78; M 2.31; N 2.83; P 2.54; Q 1.42; S 1.79; T 2.28; V 1.74; W 1.78; Y 3.01
C20: A 1.58; D 1.79; E 2.12; F 2.03; G 2.06; H 1.84; K 2.32; L 1.69; M 2.02; N 2.74; P 1.23; Q 2.03; R 2.12; S 1.96; T 2.38; V 1.72; W 1.5; Y 1.9
Y21: A 1.1; C 1.61; D 2.02; E 1.41; F 1.91; G 1.06; H 2.55; I 2.44; K 2.47; L 2.62; M 1.75; N 3.57; Q 1.93; R 1.9; S 1.8; V 2.53; W 1.89
Y22: A 3.02; C 1.92; D 2.29; E 2.1; F 1.65; G 2.64; H 1.82; I 1.75; K 1.61; L 2.24; M 2.33; N 1.56; P 1.41; Q 3.25; R 2.46; S 1.38; T 2.94; V 1.03; W 2.28
Y23: A 1.75; C 1.49; D 1.57; E 2.52; F 2.27; G 1.96; H 1.51; I 1.5; K 1.73; L 1.39; M 2.06; N 1.51; P 3.56; Q 1.73; R 1.96; S 1.83; T 1.57; V 1.3; W 1.78
E24: A 2.33; C 3.79; D 1.39; F 2.3; G 1.54; H 2.4; I 2.39; K 1.99; L 2.95; M 2.05; N 1.5; P 2.12; Q 2.5; R 1.51; S 1.98; T 1.23; V 2.32; W 1.6; Y 1.47

Variants of: B2
Assay: as above
Details: c terminus: a fixed tail appended

Protein stability index: each site, then its substitutions
P1: A 2.19; C 2.05; D 2.77; E 2.42; F 1.89; G 2.69; H 1.8; I 2.02; K 2.56; L 2.19; M 2.24; N 2.42; Q 2.4; R 2.34; S 2.21; T 2.39; V 1.72; W 1.83; Y 2.95
S2: A 2.54; C 2.4; D 2.85; E 2.55; F 1.99; G 2.66; H 2.44; I 2.02; K 1.92; L 1.95; M 2.17; N 2.29; P 2.65; Q 2.45; R 2.61; T 2.44; V 2.29; W 2.18; Y 2.64
N3: A 2.27; C 2.19; D 2.32; E 2.03; F 2.06; G 2.19; H 2.72; I 1.83; K 2.12; L 2.17; M 2.13; P 2.49; Q 2.4; R 2.35; S 2.57; T 2.14; V 1.74; W 2.75; Y 2.55
R4: A 2.64; C 1.83; D 3.49; E 2.81; F 1.81; G 3.02; H 2.1; I 2.79; K 2.54; L 2.41; M 2.1; N 2.2; P 2.8; Q 2.66; S 2.8; T 2.48; V 2.47; W 1.4; Y 1.86
S5: A 2.31; C 1.65; D 2.46; E 2.9; F 2.54; G 2.59; H 2.91; I 1.91; K 2.17; L 2.13; M 2.65; N 2.36; P 2.88; Q 2.42; R 2.64; T 2.31; V 1.96; W 2.1; Y 2.04
F6: A 3.05; C 2.38; D 3.53; E 3.22; G 3.31; H 2.99; I 2.81; K 2.99; L 2.39; M 2.76; N 2.9; P 3.02; Q 2.89; R 3.02; S 3.07; T 3.4; V 2.66; W 2.32; Y 2.52
F7: A 3.38; C 2.83; D 3.56; E 3.69; G 3.42; H 3.32; I 2.87; K 3.26; L 2.25; M 2.79; N 3.48; P 2.87; Q 3.64; R 3.32; S 4.24; T 2.79; V 2.24; W 2.41; Y 2.51
S8: A 1.91; C 1.7
